From article PMC6797613, “Crystal Structure Of Photorespiratory Alanine:Glyoxylate Aminotransferase 1 (AGT1) From Arabidopsis thaliana” (Frontiers in Plant Science, 2019)

Biological target: the molecule itself
Assay: crystal structure; crystals grown by vapor diffusion from 4.1-4.2 M sodium formate, protein 11 mg/ml in 0.2 mM PLP, 10% glycerol, 100 mM Tris-HCl pH 8.5, room temperature; without or with 20 mM L-serine; data collected at 25°C; dimer by crystallographic dyad, tetramer by noncrystallographic two-fold axis

B1: alanine:glyoxylate aminotransferase 1 (AGT1) from Arabidopsis thaliana (enzyme, UniProt Q56YA5 1-401, looked up)
chain: MDYMYGPGRHHLFVPGPVNIPEPVIRAMNRNNEDYRSPAIPALTKTLLEDVKKIFKTTSGTPFLFPTTGTGAWESALTNTLSPGDRIVSFLIGQFSLLWIDQQKRLNFNVDVVESDWGQGANLQVLASKLSQDENHTIKAICIVHNETATGVTNDISAVRTLLDHYKHPALLLVDGVSSICALDFRMDEWGVDVALTGSQKALSLPTGLGIVCASPKALEATKTSKSLKVFFDWNDYLKFYKLGTYWPYTPSIQLLYGLRAALDLIFEEGLENIIARHARLGKATRLAVEAWGLKNCTQKEEWISNTVTAVMVPPHIDGSEIVRRAWQRYNLSLGLGLNKVAGKVFRIGHLGNVNELQLLGCLAGVEMILKDVGYPVVMGSGVAAASTYLQHHIPLIPSRI
notes: alanine:glyoxylate aminotransferase 1 (AGT1), Arabidopsis thaliana, AGI At2G13360, full length (residues 2/3-401 seen in the crystal); Untagged recombinant protein from a pET28a-derived plasmid (construct as in Liepman and Olsen, 2001); Catalytic dimer; an apparent tetramer (dimer of dimers) is seen in the crystal only; also called Arabidopsis AGT1; serine:glyoxylate aminotransferase; source: E. …
stoichiometry N: 2
